How the values were obtained:
[1] = biological target: PfCD mutant Ile138His (Pyrococcus furiosus); assay: native gel or EMSA
[2] = biological target: Pyrococcus furiosus Chaperonin 60 with Ile138, with the last 22 amino acids deleted (PfCD) (Pyrococcus furiosus); assay: SEC
[3] = biological target: Pyrococcus furiosus Chaperonin 60 with Ile138, with the last 22 amino acids deleted (PfCD) (Pyrococcus furiosus); assay: native gel or EMSA

Row | stoichiometry N [1] | stoichiometry N [2] | stoichiometry N [3] | Substance
1 | 16 |  |  | PfCD mutant Ile138His (domain or fragment)
2 |  | 16 | 16 | Pyrococcus furiosus Chaperonin 60 with Ile138, with the last 22 amino acids deleted (PfCD) (domain or fragment)
